According to article PMC8271855:

Biological target: Recombinant green fluorescent protein (CopGFP, amplified from the pTurboGFP plasmid)
Assay: SEC

Substance: Recombinant green fluorescent protein (CopGFP, amplified from the pTurboGFP plasmid) (natural protein)
- stoichiometry N: 2
